Experimental data published in patent publication US9821037B1, “Compounds and method of use as anti-infection compounds and therapeutic agents to regulate cholesterol metabolism” (University of Kentucky Research Foundation, priority 2013, dated 2017).

Experiments:
BY4741 yeast = assay: Saccharomyces cerevisiae growth inhibition assay (galactose-inducible over-expression of C-terminus constructs); assay type: cell-based; settings: 4 days, 28° C.; for yeast growth with gene expression induced: BY4741, galactose as carbon source
Protocol: Constructs were created in which the C-terminal 92 AA of YSS, the C-terminal 64 AA of YSS, the C-terminal 66 AA of ASS, the C-terminal 92 AA of YSS in which the 26 AA domain is replaced by the corresponding of ASS or BSS, and the C-terminus of either ASS or BSS in which the 26 AA domain is replaced by the corresponding of YSS were cloned into the pESC-Ura (Gal1 and Gal10 promoters) vector. Constructs were transformed into BY4741 yeast and positive transformants were grown in 2 mL of Yeast-Synthetic Drop-out medium for 4 days. Serial dilutions (Corresponding to O.D.600=0.5, 0.1, 0.02, and 0.004) were plated on selection media containing either glucose or galactose as the carbon source. Pictures were taken after 4 days growth at 28° C.
To test this possibility, a gene coding for the 92 carboxy terminal residues of the yeast squalene synthase was inserted into a galactose inducible expression vector and the recombinant vector introduced into a wild type yeast (BY4741) (FIG. 7). When grown on glucose, expression of the 92 carboxy-terminal squalene synthase gene was suppressed and the transformed yeast grew normally. […] If a plant complementary carboxy-terminal gene was substituted for the yeast, no adverse effects were noted. When the 26 amino acid linker domain was deleted from the yeast gene construct, growth also was not impaired.
Constructs to be tested in S. cerevisiae were created using the pESC-Leu vector (Agilent) which harbors the Gal1/Gal10 divergent promoter to allow for galactose induction of gene expression. Primers used to create these constructs are listed in Table 4 (restriction sites, if any, in bold). YSS-92 was created by PCR amplifying a portion of the YSS gene corresponding to the 92 C-terminal amino acids using the primer sets, YSS-92 EcoRI For and YSS NotI Rev, and YSS-92 BamHI For and YSS HindIII Rev, and cloning into pESC-Leu with the corresponding restriction enzyme sites. ASS-66 and YSS-64 were created in the same manner. ASS-YSS and YSS-ASS were created in a similar manner using YSS-ASS-YSS or ASS-YSS-ASS as the templates for PCR, respectively. […]

[1] = system: erg9 knockout yeast line CALI7-1; assay: erg9 complementation assay (restoration of ergosterol prototrophy); assay type: cell-based, S. cerevisiae; settings: construct expressed in CALI7-1; plates lacking ergosterol, 28° C., 72 h
Text: Various squalene synthases were cloned into the yeast expression vector, Yep352-ADH1, including those from S. cerevisiae (YSS), B. braunii (BSS), N. benthamiana (TSS), A. thaliana (ASS), and R. norvegicus (RSS), as well as a C-terminal truncated form of YSS in which 24 amino acids comprising the ER membrane-spanning region were eliminated (YSStr). These constructs were transformed into the yeast line CALI7-1, which has been selected for high level FPP biosynthesis (10) and has an erg9 knockout mutation. It is unable to synthesize sterols de novo and is dependent on exogenous ergosterol for growth. […] To evaluate the encoded enzymes for catalytic activity, extracts prepared from the CALI7-1 yeast lines were assayed for squalene synthase enzyme activity. Constructs were also expressed in TN-7 yeast line and cultures were grown in liquid media with ergosterol and subsequently analyzed for squalene accumulation. Squalene levels were determined in TN-7 because in this yeast line, there is no possibility of squalene feeding into the ergosterol biosynthetic pathway. This allows for accurate comparisons of squalene production by the various SS enzymes.
The Cali7-1 yeast line, which has an erg9 deletion so that it cannot synthesize sterols de novo and requires exogenous ergosterol for growth, was used for these purposes (10). […]

KSKLAVQDPNFLKLNIQISKIEQFME (listed as Saccharomyces cerevisiae) [26 amino acid stretch of YSS, 26 amino acid linker-domain of squalene synthase from S. cerevisiae]
yeast growth with gene expression induced (BY4741 yeast): can inhibit the growth of yeast

B1: YSS: squalene synthase from S. cerevisiae (protein, UniProt P29704 1-444, looked up)
chain: MGKLLQLALHPVEMKAALKLKFCRTPLFSIYDQSTSPYLLHCFELLNLTSRSFAAVIRELHPELRNCVTLFYLILRALDTIEDDMSIEHDLKIDLLRHFHEKLLLTKWSFDGNAPDVKDRAVLTDFESILIEFHKLKPEYQEVIKEITEKMGNGMADYILDENYNLNGLQTVHDYDVYCHYVAGLVGDGLTRLIVIAKFANESLYSNEQLYESMGLFLQKTNIIRDYNEDLVDGRSFWPKEIWSQYAPQLKDFMKPENEQLGLDCINHLVLNALSHVIDVLTYLAGIHEQSTFQFCAIPQVMAIATLALVFNNREVLHGNVKIRKGTTCYLILKSRTLRGCVEIFDYYLRDIKSKLAVQDPNFLKLNIQISKIEQFMEEMYQDKLPPNVKPNETPIFLKVKERSRYDDELVPTQQEEEYKFNMVLSIILSVLLGFYYIYTLHRA
modifications: full-length
notes: squalene synthase from S. cerevisiae
ability to complement the erg9 deletion (growth without exogenous ergosterol) [1]: could restore ergosterol prototrophy

B2: YSS-92: the 92 C-terminal amino acids of YSS (protein, UniProt P29704 353-444, looked up, fragment)
chain: KSKLAVQDPNFLKLNIQISKIEQFMEEMYQDKLPPNVKPNETPIFLKVKERSRYDDELVPTQQEEEYKFNMVLSIILSVLLGFYYIYTLHRA
yeast growth with gene expression induced (BY4741 yeast): growth was severely arrested | yeast growth with gene expression suppressed (BY4741 yeast; BY4741, glucose as carbon source): grew normally
